The labels stand for the following.
T1: TROP2 (human, UniProt P09758 27-274, limits assumed, biotinylated (site not stated))
T1 construct: also called TROP2-biotin; tumor-associated calcium signal transducer 2
T1 sequence (looked up): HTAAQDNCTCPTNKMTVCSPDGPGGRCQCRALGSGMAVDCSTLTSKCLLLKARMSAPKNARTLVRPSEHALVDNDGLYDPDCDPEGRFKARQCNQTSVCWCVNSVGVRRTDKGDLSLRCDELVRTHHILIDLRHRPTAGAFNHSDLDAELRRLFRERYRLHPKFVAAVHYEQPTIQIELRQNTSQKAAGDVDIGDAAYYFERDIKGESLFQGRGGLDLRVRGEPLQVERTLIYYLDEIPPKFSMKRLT

T2: Cyno CD3 (Antigen was biotinylated for capture on the plate (per card); site of biotin and any vendor tag not stated in the passages seen.)
T2 construct: also called cynomolgus CD3
T2 chain: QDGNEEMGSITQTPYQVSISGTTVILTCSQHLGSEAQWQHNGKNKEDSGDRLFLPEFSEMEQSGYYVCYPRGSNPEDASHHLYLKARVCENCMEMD

T3: human TROP2-biotin (human, UniProt P09758 27-274, limits assumed, biotinylated (site not stated))
T3 construct: also called hTROP2-Biotin; Biotinylated TROP2
T3 sequence (looked up): T1 sequence (looked up)

B1: TCE-31 (bispecific antibody)
light: DIQLTQSPSSLSASVGDRVSITCKASQDVSIAVAWYQQKPGKAPKLLIYSASYRYTGVPDRFSGSGSGTDFTLTISSLQPEDFAVYYCQQHYITPLTFGAGTKVEIKRTVAAPSVFIFPPSDEQLKSGTASVVCLLNNFYPREAKVQWKVDNALQSGNSQESVTEQDSKDSTYSLSSTLTLSKADYEKHKVYACEVTHQGLSSPVTKSFNRGEC
heavy: not shown
notes: anti-CD3 scFv F104A; anti-TROP2 Fab F108A
B2: Peptide-8 (peptide)
peptide: AYCGPEFDESVGCM
modifications: cysteine pairing not given here; also: biotinylated when captured in binding ELISA
notes: also called 1555
B3: Peptide-9 (peptide)
peptide: VYCGPEFDESVGCA
modifications: cysteine pairing not given here; also: biotinylated when captured in binding ELISA
notes: also called 1566
B4: TCE-29 (anti-CD3 scFv wt; anti-TROP2 (F108A) HC) (bispecific antibody)
light: B1 light
heavy: not shown
notes: scFv-Fab; the entry already carries the mutation
B5: TCE-31 (anti-CD3 scFv F104A; anti-TROP2 (F108A) HC) (bispecific antibody)
light: B1 light
heavy: not shown
notes: scFv-Fab; the entry already carries the mutations
B6: TCE-36 (bispecific antibody)
light chain (anti-TROP2 LC wt): B1 light
heavy chain (anti-CD3 scFv H101A fused to anti-TROP2 D109A Fab HC): not shown
notes: not in the list MOLECULES; also called TCE-36 (anti-CD3 scFv H101A; anti-TROP2 (D109A) HC)
B7: TCE-38 (bispecific antibody)
light chain (anti-TROP2 LC wt): B1 light
heavy chain (anti-CD3 scFv F240A fused to anti-TROP2 D109A Fab HC): not shown
notes: not in the list MOLECULES; also called anti-TROP2 (D109A) HC)
B8: TCE-30 (bispecific antibody)
light: B1 light
heavy: not shown
notes: anti-CD3 scFv H101A; anti-TROP2 Fab F108A
B9: TCE-35 (anti-CD3 scFv wt; anti-TROP2 (D109A) HC) (bispecific antibody)
light: B1 light
heavy: not shown
notes: as for B4
B10: TCE-30 (anti-CD3 scFv H101A; anti-TROP2 (F108A) HC) (bispecific antibody)
light: B1 light
heavy: not shown
notes: as for B5
B11: TCE-18 (anti-CD3 scFv L232A; anti-TROP2 HC wt) (bispecific antibody)
light: B1 light
heavy: not shown
notes: as for B4
B12: TCE-25 (anti-CD3 scFv V239A; anti-TROP2 HC wt) (bispecific antibody)
light: B1 light
heavy: not shown
notes: as for B4
B13: TCE-21 (anti-CD3 scFv S235A; anti-TROP2 HC wt) (bispecific antibody)
light: B1 light
heavy: not shown
notes: as for B4
B14: TCE-23 (anti-CD3 scFv R237A; anti-TROP2 HC wt) (bispecific antibody)
light: B1 light
heavy: not shown
notes: as for B4
B15: TCE-17 (anti-CD3 scFv V231A; anti-TROP2 HC wt) (bispecific antibody)
light: B1 light
heavy: not shown
notes: as for B4
B16: TCE-19 (anti-CD3 scFv W233A; anti-TROP2 HC wt) (bispecific antibody)
light: B1 light
heavy: not shown
notes: scFv-Fab; the entry already carries the mutation; also called 3091
B17: TCE-24 (anti-CD3 scFv W238A; anti-TROP2 HC wt) (bispecific antibody)
light: B1 light
heavy: not shown
notes: scFv-Fab; the entry already carries the mutation; also called 3096
B18: TCE-22 (anti-CD3 scFv N236A; anti-TROP2 HC wt) (bispecific antibody)
light: B1 light
heavy: not shown
notes: as for B4
B19: TCE-20 (anti-CD3 scFv Y234A; anti-TROP2 HC wt) (bispecific antibody)
light: B1 light
heavy: not shown
notes: as for B4
B20: TCE-14 (anti-CD3 scFv Y111A; anti-TROP2 HC wt) (bispecific antibody)
light: B1 light
heavy: not shown
notes: scFv-Fab; the entry already carries the mutation; also called 3086
B21: TCE-28 (anti-CD3 scFv N30Q, I109V, G172A, V231A; anti-TROP2 HC wt) (bispecific antibody)
light: B1 light
heavy: not shown
notes: scFv-Fab; the entry already carries the mutations; also called 3100

Ends that are not written are not given here.

The first experiment concerns the target T1, TROP2. Kind of experiment: ELISA, biotinylated TROP2 captured on neutravidin coated plates, HRP secondary antibody, OD 450 nm. In general terms: In an ELISA, binding on a coated surface is turned into a signal by an enzyme label.
One may read the EC50 (read off the curve) as the concentration at which the effect is half-maximal. A lower EC50 (read off the curve) goes with a more potent agent. Take B1: the “EC50 (read off the curve)” value is about 0.7 nM.

A further experiment concerns the target T4, TCE-15.
T4 construct: anti-CD3 scFv W112A; anti-TROP2 Fab wt; also called 3087
Kind of experiment: competition ELISA, peptide titrated vs TCE binding to captured CD3.
Usually IC50 stands for the concentration needed to halve the response being measured. Consider GSQCLGPEWEVCPY (cysteine pairing not given here; also: biotinylated when captured in ELISA, also called 1419) [Peptide-2], for which the IC50 was over 100000 nM.
The same measure, in the same setting: as for QGCGTIADPEPHCW (cysteine pairing not given here; also: biotinylated when captured in ELISA, also called 1363) [Peptide-1], the figure is over 100000 nM.

In a further experiment the target is T5, TCE-19.
T5 construct: anti-CD3 scFv W233A; anti-TROP2 Fab wt; also called 3091
Described as above.
For VYCGPEFDESVGCM (cysteine pairing not given here; also: biotinylated when captured in ELISA, also called 1443) [Peptide-3], the IC50 is over 100000 nM.
Same read-out and setting: as for B2, the figure is over 100000 nM; as for B3, over 100000 nM.
The same measure, in the same setting: the figure for GSQCLGPEWEVCPY (cysteine pairing not given here; also: biotinylated when captured in ELISA, also called 1419) [Peptide-2] is over 100000 nM.
On the same count and under the same terms, the figure for ASQCLGPEWEVCPY (cysteine pairing not given here; also: biotinylated when captured in ELISA, also called 1594) [Peptide-10] is over 100000 nM.

A further experiment deals with T2, Cyno CD3. The experiment can be described thus: Cyno CD3 binding ELISA, TCE titrated.
What is called EC50 is the concentration giving half of the maximal effect. Higher therefore signals a need for much substance. Consider B4, for which the EC50 worked out at 0.184 nM.
Same read-out and setting: the figure for B5 is 0.671 nM.

The next experiment has as its target T6, human CD3ε-biotin (human, UniProt P07766 23-126, limits assumed, biotinylated (site not stated)).
T6 construct: also called CD3E-bio; CD3E-biotin
Kind of experiment: ELISA, biotinylated CD3ε captured on neutravidin plate, TCE titrated.
As for B6, a half-maximal response (EC50) required 0.595 nM.
Same read-out and setting: as for B7, the figure is 1.09 nM.

The target of the next experiment is T1, TROP2. Kind of experiment: ELISA, biotinylated TROP2 captured on neutravidin coated plates, HRP secondary antibody, OD 450 nm. This is another data set of the same source.
For the molecule B8, the “EC50 (read off the curve)” value was about 2 nM.

In the next experiment the target is T7, TCE-3.
T7 construct: anti-CD3 scFv R100A; anti-TROP2 Fab wt; also called 3075
The experiment can be described thus: competition ELISA, peptide titrated vs TCE binding to captured CD3.
Turning to QGCGTIADPEPHCW (cysteine pairing not given here; also: biotinylated when captured in ELISA, also called 1363) [Peptide-1], the IC50 was over 100000 nM.

For the next experiment, the target named is T8, TCE-6.
T8 construct: anti-CD3 scFv N103A; anti-TROP2 Fab wt; also called 3078
Described as above.
For QGCGTIADPEPHCW (cysteine pairing not given here; also: biotinylated when captured in ELISA, also called 1363) [Peptide-1], the IC50 is over 100000 nM.

Another experiment deals with T3, human TROP2-biotin. The experiment can be described thus: ELISA, biotinylated TROP2 captured on neutravidin plate, TCE titrated.
In turn, B4 yielded an EC50 of 1.15 nM.
On the same count and under the same terms, as for B5, the figure is 1.02 nM; as for B9, 1.07 nM.
Still for that read-out and setting: the figure for B10 is 1.28 nM.

In a further experiment the target is T9, TCE-1.
T9 construct: anti-CD3 scFv wt fused to anti-TROP2 Fab HC wt
The experiment can be described thus: competition ELISA: peptide titrated and pre-incubated with a constant concentration of TCE-1; TCE-1 bound to plate-captured biotinylated CD3 is detected (blocked ligand: CD3).
With B2, the “IC50 (read off the curve)” value is about 400 nM.
Same read-out and setting: the figure for GSQCLGPEWEVCPY (cysteine pairing not given here; also: biotinylated when captured in ELISA, also called 1419) [Peptide-2] is about 300 nM.
Regarding ASQCLGPEWEVCPY (cysteine pairing not given here; also: biotinylated when captured in ELISA, also called 1594) [Peptide-10], the “IC50 (read off the curve)” value is about 200 nM.

Another experiment addresses T6, human CD3ε-biotin. Kind of experiment: BLI (Octet), summary table. A general note: Biolayer interferometry detects binding as a change in optical thickness at a sensor tip.
In general, Kd refers to a measure of binding affinity in units of concentration. A lower Kd goes with a tighter complex. Consider B11, for which the “CD3 Octet response” value is 0.66, the “CD3 t1/2” value is 2.64 min and binding was put at a Kd of 8.39 nM.
As for B12, the “CD3 Octet response” value worked out at 0.74 and the “CD3 t1/2” value was 4.26 min.
For B13, the “CD3 Octet response” value was determined as 0.68 and the Kd worked out at 3.41 nM.
Turning to B14, the “CD3 Octet response” value is 0.73, the “CD3 t1/2” value came to 2.67 min and the Kd stood at 6.51 nM.
On to B15, for which the “CD3 t1/2” value worked out at 2.96 min and binding was characterised by a dissociation constant (Kd) of 6.26 nM.
Regarding B16, the “CD3 t1/2” value was determined as 6.45 min and the Kd was determined as 12.3 nM.
In the case of B17, the “CD3 Octet response” value worked out at 0.07 and the affinity, expressed as Kd, was 31 nM.
For the molecule B18, the “CD3 Octet response” value was 0.65 and the “CD3 t1/2” value came out at 2.45 min.
Regarding B19, the “CD3 Octet response” value came out at 0.67; the “CD3 t1/2” value is 1.66 min; the affinity, expressed as Kd, was 11.1 nM.

The target of a further experiment is T3, human TROP2-biotin. The experiment can be described thus: ELISA, biotinylated TROP2 captured on neutravidin plate, TCE titrated; table row head prints EC50 without a unit, unit taken from the axis Log [TCE nM].
For the molecule B6, the EC50 is 1.38 nM.

The target in the next experiment is T6, human CD3ε-biotin. The experiment can be described thus: Human CD3 binding ELISA, TCE titrated.
The molecule B5 displayed an EC50 of 0.761 nM.

A further experiment deals with T6, human CD3ε-biotin. Kind of experiment: BLI (Octet), human CD3ε-biotin 10 nM on sensor, 50 nM TCE.
Take B20: the Response was -0.0009.
B21 returned a Kd of 9.11 nM and a Response of 0.931.
The matching figures for B11: 8.39 nM and 0.663.
The molecule B12 gave a Response of 0.742.
Consider B13, for which the Kd amounted to 3.41 nM and the Response worked out at 0.682.
The like results for B14 were, in that order, 6.51 nM and 0.728.
B15 had a Kd of 6.26 nM.
Regarding B16, binding was characterised by a dissociation constant (Kd) of 12.3 nM and the Response worked out at 0.414.
The matching figures for B17: 31 nM and 0.0683.
The molecule B18 showed a Response of 0.65.
Molecule B19 returned a Kd of 11.1 nM and a Response of 0.674.
